Measurements from US20050241007.

System: Frog Prince transposase (consensus, FP) (Rana pipiens)
Assay: cell_activity
Conditions: G418-resistant colony increase in HeLa cells

Frog Prince transposase (consensus, FP) (Rana pipiens), sequence (chain, as listed by the source): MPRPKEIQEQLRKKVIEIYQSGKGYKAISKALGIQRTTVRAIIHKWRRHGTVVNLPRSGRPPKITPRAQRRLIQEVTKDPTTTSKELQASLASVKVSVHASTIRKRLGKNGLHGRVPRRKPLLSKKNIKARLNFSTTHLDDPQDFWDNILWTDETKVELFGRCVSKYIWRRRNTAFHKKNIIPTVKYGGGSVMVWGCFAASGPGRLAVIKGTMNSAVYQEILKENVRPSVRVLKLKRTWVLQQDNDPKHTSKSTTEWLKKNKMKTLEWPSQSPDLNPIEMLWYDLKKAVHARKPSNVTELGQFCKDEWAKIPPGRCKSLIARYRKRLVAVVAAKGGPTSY

| Substance | activity (transposition) [fold] | activity (cross-mobilization) [fold] |
| --- | --- | --- |
| CAGTGGTGTGAAAAAGTGTTTGCCCCCTTCCTCATTTCCTGTTCCTTTGCATGTTTGTCACACTTAAGTGTTTCGGAACATCAAACCAATTTAAACAATAGTCAAGGACAACACAAGTAAACACAAAATGCAATTTGTAAATGAAGGTGTTTATTATTAAAGGTGAAAAAAAATCCAAACCATCATGGCCCTGTGTGAAAAAGTGATTGCCCCCCTTGTTAAAACATACTATAACTGTGGTTGTCCACAC (double strand) [Frog Prince transposon inverted repeat (pFrogPrince-neo)] | 17 | – |
| Txr transposon (pTxr-neo) | – | 5 |
